In article PMC11621822:

Target: recombinant heat shock protein 70 cognate 3 (Hsc70-3), protein encoded by AAEL017349 (Aedes aegypti)
Assay: ELISA

- EC50: 70.7 nM
Substance: recombinant E protein Receptor (EPrRec), protein encoded by AAEL011180 (natural protein)
